Entries after “also recorded” stand apart in the source; their conditions may differ.

For assay [1], the system named is EpCAM. Nature of the assay: Antibody binding to EpCAM wild-type and mutants expressed in HEK293T cells (immunofluorescence, flow cytometry, cellular ELISA). More on the design: species or system human. The settings on record: HEK293T; immunofluorescence, flow cytometry, cellular ELISA; FIG. 8E-8G. The procedure:
FIGS. 8A to 8G. EpAb2-6 binds to both EGF-like domain I and II of EpCAM. HEK293T cells were transfected with full length or EGF like-domain deletion mutant EpCAM-V5. Antibody binding was assessed by (FIG. 8A) Western blotting, (FIG. 8B) flow cytometry, and (FIG. 8C) immunofluorescence. (FIG. 8D) EpCAM mutants were constructed with amino acid substitutions in the EGF-I (Y32A) and EGF-II (L94A, Y95A, or D96A) domains. EpCAM wild-type and mutant proteins were expressed in HEK293T cells. Binding of MT201, EpAb2-6 and EpAb23-1 to EpCAM wild-type and mutants were evaluated by (FIG. 8E) immunofluorescence, (FIG. 8F) flow cytometry, and (FIG. 8G) cellular ELISA.
A previous study identified the binding epitope of EpAb2-6 antibody as the LYD motif in EpCAM, which corresponds to amino acid residues 94-96; in particular, residue 95 (Y95) plays a major role in EpAb2-6 binding (Liao et al., 2015). […] Therefore, we wanted to determine whether the antibody binds to EpCAM at both EGF-like domains of EpEX (FIG. 8A, FIG. 8B, FIG. 8C). To confirm that EpAb2-6 recognizes the LYD motif in EpCAM, we constructed cDNA sequences encoding the first (aa 27-59; EGF-I domain) and second (aa 66-135; EGF-II/TY domain) EGF-like repeats of EpCAM. PCR-based site-directed mutagenesis was then used to introduce mutations into each domain (FIG. 8D). The reactivity of EpAb2-6 antibody toward these EpCAM mutants was evaluated by immunofluorescence (FIG. 8E), flow cytometry (FIG. 8F), and cellular ELISA (FIG. 8G).
(In general: A flow cytometer gives signals particle by particle.)

For assay [2], the system named is ADAM17 and presenilin 2. Nature of the assay: Western blotting of RIP proteins ADAM17 and presenilin 2 in HCT116 cells. Conditions: 10 μg/ml 16 h, then EpEX-His 50 nM 15 min, FIG. 7E. The class given is cell-based, human. The procedure: FIGS. 7A to 7G. EpAb2-6 binds EpEX and induces apoptosis by F(ab′)2 and inhibits regulated intramembrane proteolysis (RIP) activation and HGFR signaling. (FIG. 7A) Binding affinity of IgG EpAb2-6 (mouse) and F(ab′)2 to EpEX-His (1 μg/ml) coated overnight was checked using ELISA (OD450). (FIG. 7B) HCT116 cells were treated with 100 μg/ml control IgG, Fc, or F(ab′)2 of EpAb2-6 for 24 h. The apoptotic and necrotic cells were quantified by fluorescein annexin V-FITC/PI double labeling. (FIG. 7C) HCT116 and HT29 cells were treated with 10 μg/ml control IgG, MT201, humanized EpAb2-6 (hEpAb2-6) or mouse hybridoma EbAb2-6 (mEpAb2-6) for 24 h. The apoptotic and necrotic cells were quantified by fluorescein annexin V-FITC/PI double labeling. (FIG. 7D) HCT116 cells were treated with 10 μg/ml control IgG, MT201, hEpAb2-6 or mEpAb2-6 for 16 h, followed by treatment with EpEX-His (50 nM) for 15 min. Levels of phosphorylated HGFR, AKT, and ERK, and (FIG. 7E) RIP proteins ADAM17 and presenilin 2 were examined by Western blotting. Anti-EpCAM antibody and crizotinib coordinately induces apoptosis in colon cancer cells. (FIG. 7F) HCT116 and HT29 cells were treated with 10 μg/ml NMIgG or EpAb2-6 and 4 μM HGFR inhibitor crizotinib for 24 h. The apoptotic and necrotic cells were quantified by fluorescein annexin V-FITC/PI double labeling. […] Cell invasion was assessed by a Transwell assay with matrigel after 24 h.
Whole cell extracts were prepared with RIPA buffer (50 mM Tris-HCl pH7.4, 1% NP-40, 0.5% Sodium deoxycholate, 0.1% SDS, 150 mM NaCl, 2 mM EDTA, 50 mM NaF). Protein concentrations of the cell lysates were determined by the Bradford assay. […]
Appropriate horseradish peroxidase-associated secondary antibodies (Millipore) were applied and the membranes were incubated at room temperature (RT) for 1 h. The protein bands were subsequently visualized with chemiluminescence reagents (Millipore) and detected on a BioSpectrum 600 Imaging system (UVP). The protein level was quantified from band intensity using Gel-Pro analyzer 3.1 (Media Cybernetics).
A general note: Immunoblotting shows a protein as a band on a membrane.

For assay [3], the system named is HT29 cells. Nature of the assay: Apoptosis assay, annexin V-FITC/PI double labeling, HT29. In kind it is cell-based, human. Conditions: 10 μg/ml 24 h, FIG. 7C. On the procedure: FIGS. 7A to 7G. EpAb2-6 binds EpEX and induces apoptosis by F(ab′)2 and inhibits regulated intramembrane proteolysis (RIP) activation and HGFR signaling. (FIG. 7A) Binding affinity of IgG EpAb2-6 (mouse) and F(ab′)2 to EpEX-His (1 μg/ml) coated overnight was checked using ELISA (OD450). (FIG. 7B) HCT116 cells were treated with 100 μg/ml control IgG, Fc, or F(ab′)2 of EpAb2-6 for 24 h. The apoptotic and necrotic cells were quantified by fluorescein annexin V-FITC/PI double labeling. (FIG. 7C) HCT116 and HT29 cells were treated with 10 μg/ml control IgG, MT201, humanized EpAb2-6 (hEpAb2-6) or mouse hybridoma EbAb2-6 (mEpAb2-6) for 24 h. The apoptotic and necrotic cells were quantified by fluorescein annexin V-FITC/PI double labeling. (FIG. 7D) HCT116 cells were treated with 10 μg/ml control IgG, MT201, hEpAb2-6 or mEpAb2-6 for 16 h, followed by treatment with EpEX-His (50 nM) for 15 min. Levels of phosphorylated HGFR, AKT, and ERK, and (FIG. 7E) RIP proteins ADAM17 and presenilin 2 were examined by Western blotting. Anti-EpCAM antibody and crizotinib coordinately induces apoptosis in colon cancer cells. (FIG. 7F) HCT116 and HT29 cells were treated with 10 μg/ml NMIgG or EpAb2-6 and 4 μM HGFR inhibitor crizotinib for 24 h. The apoptotic and necrotic cells were quantified by fluorescein annexin V-FITC/PI double labeling. (FIG. 7G) HCT116 and HT29 cells were treated with 10 μg/ml NMIgG or EpAb2-6 and 10 μM HGFR inhibitor crizotinib. Cell invasion was assessed by a Transwell assay with matrigel after 24 h.
Cells were seeded and treated with 10 μg/ml mAb or inhibitor for 6 h; an unrelated mouse myeloma immunoglobulin used at appropriate dilution served as the IgG2a (Invitrogen #02-6200) isotype control. Apoptotic cells were detected using Annexin V-FITC and PI, and were analyzed using a flow cytometer (BD Immmunocytometry Systems). Early apoptosis was measured with the Annexin V-FITC Apoptosis Detection kit II (BD Pharmingen). Late apoptotic nuclei were detected with propidium iodide (PI) staining.

For assay [4], the system named is HCT116 cells. Nature of the assay: Apoptosis assay, annexin V-FITC/PI double labeling, HCT116. In kind it is cell-based, human. Conditions: 10 μg/ml 24 h, FIG. 7C.
The test system of assay [5] is cancer cells. The settings on record: comparison in the description; previous work; cited from earlier work.
The target of assay [6] is T1, EpCAM (Homo sapiens, UniProt P16422).
T1 sequence (P16422 24-314): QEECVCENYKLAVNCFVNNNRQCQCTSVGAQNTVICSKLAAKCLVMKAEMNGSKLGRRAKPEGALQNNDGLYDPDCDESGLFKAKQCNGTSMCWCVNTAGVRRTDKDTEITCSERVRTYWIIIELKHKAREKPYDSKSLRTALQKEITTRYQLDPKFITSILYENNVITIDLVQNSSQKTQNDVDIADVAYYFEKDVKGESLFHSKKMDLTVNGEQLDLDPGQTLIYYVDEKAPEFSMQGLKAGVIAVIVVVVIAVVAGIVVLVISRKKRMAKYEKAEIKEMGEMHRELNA
Conditions: cited from earlier work.

For assay [7], the system named is HCT116 or HT29. The assay can be described thus: Metastatic and orthotopic animal models of colon cancer, overall statements.
Description: Colon cancer HCT116 or HT29 (5×10^6 cells/mouse) in PBS were injected into 4-6-week-old female NOD/SCID mice through the tail vein. Mice were then randomly assigned to different treatment groups by body weight. After 3 days, antibodies were administered through tail vein injection twice a week for four consecutive weeks. Crizotinib was administered daily by oral gavage for 5 days per week (treatment for four weeks). For the therapeutic study, tumor-bearing mice were treated with isotype control IgG1 (15 mg/kg), crizotinib (20 mg/kg), EpAb2-6 (15 mg/kg), or crizotinib (20 mg/kg) combined with EpAb2-6 (15 mg/kg). Mouse survival rate were measured.
Orthotopic tumor models were created as previously reported (Chen et al., 2020). Briefly, NSCID mice were used for orthotopic implantation of HCT116 cells previously infected with Lenti-luc virus (lentivirus containing luciferase gene). The mice were anesthetized by i.p. injection ofAvertin, 2,2,2-Tribromo-ethanol (Sigma-Aldrich) at a dose of 250 mg/kg. Tumor development was monitored by bioluminescence imaging. For the therapeutic study, tumor-bearing mice were treated with isotype control IgG1 (15 mg/kg), crizotinib (20 mg/kg), EpAb2-6 (15 mg/kg), or crizotinib (20 mg/kg) combined with EpAb2-6 (15 mg/kg). Tumor progression was monitored by quantification of bioluminescence. Mouse survival was also monitored.

Consider “MT201: human anti-EpCAM antibody, adecatumumab (MT201)”, for which the “antibody binding to EpCAM with mutations at Y32 (EGF-I domain) or Y95 (EGF-II domain)” value in assay [1] is reported as “did not affect”. For the same molecule, the “levels of phosphorylated ADAM17 and presenilin 2” value in assay [2] is “no such effects”. The apoptosis result in assay [3] and in assay [4] was “did not show such effects” throughout. Besides, in assay [5], the “inducing apoptosis of cancer cells” value is given as “failing to”. In assay [6] (other anti-EpCAM antibodies, comparison in the description), the EpCAM domains bound result was “target only the well-described EGF I domain of EpCAM; also recorded: binding to domain I only”.

B1: EpAb2-6: anti-EpCAM neutralizing monoclonal antibody targeting EpEX; VH SEQ ID NO: 15, VL SEQ ID NO: 16 (antibody, listed as Homo sapiens, V domains shown)
VH: VKLQESGPELKKPGETVKISCKASGYTFTDYSMHWVKQAPGKGLKWMGWINTETGEPTYADDFKGRFAFSLETSASTAYLQINNLKNEDTATYFCARTAVYWGQGTTVTVSS
VL: DIQMTQSPSSLSASLGERVSLTCRASQEISVSLSWLQQEPDGTIKRLIYATSTLDSGVPKRFSGSRSGSDYSLTISSLESEDFVDYYCLQYASYPWTFGGGTKLEIKRADAAPTVS
B1: the “antibody binding to EpCAM with mutations at Y32 (EGF-I domain) or Y95 (EGF-II domain)” value in assay [1] is “marked reductions”. Also, the “levels of phosphorylated ADAM17 and presenilin 2” value in assay [2] is “decreased”. Moreover, the apoptosis entry in assay [3] and in assay [4] was “inducing apoptosis” each time. For the same molecule, the survival result in assay [7] is listed as “higher median survival than the control IgG- or crizotinib-treated groups”. Besides, the tumor progression result in assay [7] is on record as “much slower tumor progression”. Also, the “inducing apoptosis of cancer cells” value in assay [5] was “induces cancer cell apoptosis”. Further, the “binding epitope in EpCAM” value in assay [6] (previous study (Liao et al., 2015)) is “LYD motif”.
